Data reported in US20240358855A1 (UNIVERSITY OF UTAH RESEARCH FOUNDATION, published 2024).

T1: CRP (UniProt P02741 19-224)
T1 construct: Bought protein coated on plates; also called C reactive protein
T1 sequence (looked up): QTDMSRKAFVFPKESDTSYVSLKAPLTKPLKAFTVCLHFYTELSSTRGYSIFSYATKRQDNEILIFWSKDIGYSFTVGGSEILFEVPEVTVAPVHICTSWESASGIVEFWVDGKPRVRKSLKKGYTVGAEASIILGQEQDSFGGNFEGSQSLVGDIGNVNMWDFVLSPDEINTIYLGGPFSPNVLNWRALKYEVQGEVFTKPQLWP


Experiments:
C3b protein [1] = target: T2, C3b protein (UniProt P01024 23-667; P01024 749-1663, limits assumed); assay: plate binding ELISA on coated C3b, HEK293 supernatant 25 ng/mL; fold vs (-) control pCTM395 supernatant
T2 construct: domain: C3b; Bought protein coated on plates
Method: The C3b binding assay uses C3b protein (Complement Technology, Cat. #A114) diluted with 50 mM carbonate coating buffer (pH 9.6) at a final concentration of 50 μM. A total of 100 μl of C3b/carbonate solution was added to each well of a black MaxiSorp 96-wellmicroplate, covered and incubated overnight at 4° C. Blank control wells were incubated with carbonate coating buffer containing no C3b protein. Wells were washed 3 times with 300 μl PBST then blocked for 1 hour with reagent dilution buffer (1% BSA in PBS). Wells were washed again 3 times with 300 μl PBST. […] The plate was washed as above then incubated for 1 hour with anti-CFH/CFHT biotinylated aCTM87b antibody (OX-24, AbCam, Cat. #ab112197) at 1:1000 dilution. The plates were washed as above, then incubated for 1 hour with high sensitivity Streptavidin-HRP (Pierce Cat. #21130) at 1:10,000, washed as above then incubated for 5 minutes with SuperSignal ELISA Pico Chemiluminescent Substrate (Thermo Scientific, Cat. #37069) before detection using the BioTek Synergy4 plate reader.
For C3b assays, 25 ng/mL of CFHT protein-containing supernatant was added to plates coated with C3b.

CRP [2] = target: T1, CRP; assay: plate binding ELISA on coated CRP, HEK293 supernatant; fold vs (-) control pCTM395 supernatant
CRP [3] = target: T1, CRP; assay: plate binding ELISA on coated CRP; fold vs (-) control pCTM395 supernatant
C3b protein [4] = target: T2, C3b protein; assay: plate binding ELISA on coated C3b; fold vs (-) control pCTM395 supernatant
CRP [5] = target: T1, CRP; assay: plate binding ELISA on coated CRP, purified protein; fold vs CFHT-I62
C3 convertase, C3bBb = C3 convertase, C3bBb (UniProt P01024 23-1663; P00751 260-764, limits assumed); assay: cell-based or functional assay
C3b protein [6] = target: T2, C3b protein; assay: plate binding ELISA on coated C3b, purified protein; fold vs CFHT-I62
Method: The C3b binding assay uses C3b protein (Complement Technology, Cat. #A114) diluted with 50 mM carbonate coating buffer (pH 9.6) at a final concentration of 50 μM. A total of 100 μl of C3b/carbonate solution was added to each well of a black MaxiSorp 96-wellmicroplate, covered and incubated overnight at 4° C. Blank control wells were incubated with carbonate coating buffer containing no C3b protein. Wells were washed 3 times with 300 μl PBST then blocked for 1 hour with reagent dilution buffer (1% BSA in PBS). Wells were washed again 3 times with 300 μl PBST. Dilutions of recombinant protective CFH, CFHT, oCFHT or supernatant from transiently transfected or transduced Cos-7 cells were prepared in reagent dilution buffer, added to wells in triplicate and incubated for 1 hour at room temperature. The plate was washed as above then incubated for 1 hour with anti-CFH/CFHT biotinylated aCTM87b antibody (OX-24, AbCam, Cat. #ab112197) at 1:1000 dilution. The plates were washed as above, then incubated for 1 hour with high sensitivity Streptavidin-HRP (Pierce Cat. #21130) at 1:10,000, washed as above then incubated for 5 minutes with SuperSignal ELISA Pico Chemiluminescent Substrate (Thermo Scientific, Cat. #37069) before detection using the BioTek Synergy4 plate reader. […]

C3d ligand = target: T3, C3d ligand (UniProt P01024 1002-1303, limits assumed); assay: plate binding assay on C3d, purified protein; fold vs CFHT-I62
T3 construct: domain: C3d
T3 sequence (P01024 1002-1303 limits assumed): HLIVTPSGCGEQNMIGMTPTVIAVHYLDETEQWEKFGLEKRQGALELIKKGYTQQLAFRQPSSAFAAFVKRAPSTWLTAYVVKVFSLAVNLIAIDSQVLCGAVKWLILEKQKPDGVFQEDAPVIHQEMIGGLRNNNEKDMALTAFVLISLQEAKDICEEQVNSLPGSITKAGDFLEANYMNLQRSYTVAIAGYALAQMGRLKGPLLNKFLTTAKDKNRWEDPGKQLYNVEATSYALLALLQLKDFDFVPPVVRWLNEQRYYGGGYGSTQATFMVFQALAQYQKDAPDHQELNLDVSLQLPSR

T2 sequence (P01024 23-667 limits assumed, chain 1 of 2): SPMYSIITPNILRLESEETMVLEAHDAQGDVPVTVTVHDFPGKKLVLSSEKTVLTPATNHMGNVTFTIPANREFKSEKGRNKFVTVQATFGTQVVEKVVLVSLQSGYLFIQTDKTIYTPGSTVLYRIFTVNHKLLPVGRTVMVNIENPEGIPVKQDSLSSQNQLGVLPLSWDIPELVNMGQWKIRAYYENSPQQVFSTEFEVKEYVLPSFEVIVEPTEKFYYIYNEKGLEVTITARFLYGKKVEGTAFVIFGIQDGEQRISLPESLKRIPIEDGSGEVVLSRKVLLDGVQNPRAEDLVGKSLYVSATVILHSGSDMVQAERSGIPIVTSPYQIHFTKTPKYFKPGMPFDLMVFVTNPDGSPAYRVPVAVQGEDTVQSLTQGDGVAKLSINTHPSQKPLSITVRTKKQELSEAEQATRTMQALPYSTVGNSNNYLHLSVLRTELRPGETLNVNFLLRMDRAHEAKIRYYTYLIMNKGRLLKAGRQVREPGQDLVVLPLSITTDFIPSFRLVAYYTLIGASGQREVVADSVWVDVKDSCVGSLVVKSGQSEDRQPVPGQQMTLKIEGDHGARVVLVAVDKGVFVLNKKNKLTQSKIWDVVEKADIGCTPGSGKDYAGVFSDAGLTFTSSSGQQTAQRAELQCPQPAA
T2 sequence (P01024 749-1663 limits assumed, chain 2 of 2): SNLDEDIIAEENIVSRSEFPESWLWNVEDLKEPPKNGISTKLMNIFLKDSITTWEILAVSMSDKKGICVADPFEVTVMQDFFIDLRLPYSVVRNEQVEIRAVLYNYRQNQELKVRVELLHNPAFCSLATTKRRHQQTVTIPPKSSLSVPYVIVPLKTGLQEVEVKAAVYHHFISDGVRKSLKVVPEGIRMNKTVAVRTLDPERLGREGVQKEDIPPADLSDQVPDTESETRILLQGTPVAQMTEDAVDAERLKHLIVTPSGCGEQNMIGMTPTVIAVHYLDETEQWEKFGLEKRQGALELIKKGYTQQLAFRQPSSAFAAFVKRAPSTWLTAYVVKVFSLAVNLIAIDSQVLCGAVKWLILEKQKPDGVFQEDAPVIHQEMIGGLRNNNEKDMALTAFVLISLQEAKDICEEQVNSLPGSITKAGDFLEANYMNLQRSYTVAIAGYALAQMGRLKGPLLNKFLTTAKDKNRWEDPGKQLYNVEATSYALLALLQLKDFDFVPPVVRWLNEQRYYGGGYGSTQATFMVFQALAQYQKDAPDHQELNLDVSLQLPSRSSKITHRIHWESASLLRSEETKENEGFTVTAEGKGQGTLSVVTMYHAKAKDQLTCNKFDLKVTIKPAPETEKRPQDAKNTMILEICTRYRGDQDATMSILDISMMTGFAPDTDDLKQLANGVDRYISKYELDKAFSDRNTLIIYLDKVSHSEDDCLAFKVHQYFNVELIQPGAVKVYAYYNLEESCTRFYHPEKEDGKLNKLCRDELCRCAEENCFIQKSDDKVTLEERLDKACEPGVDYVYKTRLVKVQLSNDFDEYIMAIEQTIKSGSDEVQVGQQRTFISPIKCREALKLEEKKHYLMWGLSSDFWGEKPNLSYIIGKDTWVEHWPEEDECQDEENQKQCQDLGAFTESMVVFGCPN
C3 convertase, C3bBb, sequence (P01024 23-1663 limits assumed, chain 1 of 2): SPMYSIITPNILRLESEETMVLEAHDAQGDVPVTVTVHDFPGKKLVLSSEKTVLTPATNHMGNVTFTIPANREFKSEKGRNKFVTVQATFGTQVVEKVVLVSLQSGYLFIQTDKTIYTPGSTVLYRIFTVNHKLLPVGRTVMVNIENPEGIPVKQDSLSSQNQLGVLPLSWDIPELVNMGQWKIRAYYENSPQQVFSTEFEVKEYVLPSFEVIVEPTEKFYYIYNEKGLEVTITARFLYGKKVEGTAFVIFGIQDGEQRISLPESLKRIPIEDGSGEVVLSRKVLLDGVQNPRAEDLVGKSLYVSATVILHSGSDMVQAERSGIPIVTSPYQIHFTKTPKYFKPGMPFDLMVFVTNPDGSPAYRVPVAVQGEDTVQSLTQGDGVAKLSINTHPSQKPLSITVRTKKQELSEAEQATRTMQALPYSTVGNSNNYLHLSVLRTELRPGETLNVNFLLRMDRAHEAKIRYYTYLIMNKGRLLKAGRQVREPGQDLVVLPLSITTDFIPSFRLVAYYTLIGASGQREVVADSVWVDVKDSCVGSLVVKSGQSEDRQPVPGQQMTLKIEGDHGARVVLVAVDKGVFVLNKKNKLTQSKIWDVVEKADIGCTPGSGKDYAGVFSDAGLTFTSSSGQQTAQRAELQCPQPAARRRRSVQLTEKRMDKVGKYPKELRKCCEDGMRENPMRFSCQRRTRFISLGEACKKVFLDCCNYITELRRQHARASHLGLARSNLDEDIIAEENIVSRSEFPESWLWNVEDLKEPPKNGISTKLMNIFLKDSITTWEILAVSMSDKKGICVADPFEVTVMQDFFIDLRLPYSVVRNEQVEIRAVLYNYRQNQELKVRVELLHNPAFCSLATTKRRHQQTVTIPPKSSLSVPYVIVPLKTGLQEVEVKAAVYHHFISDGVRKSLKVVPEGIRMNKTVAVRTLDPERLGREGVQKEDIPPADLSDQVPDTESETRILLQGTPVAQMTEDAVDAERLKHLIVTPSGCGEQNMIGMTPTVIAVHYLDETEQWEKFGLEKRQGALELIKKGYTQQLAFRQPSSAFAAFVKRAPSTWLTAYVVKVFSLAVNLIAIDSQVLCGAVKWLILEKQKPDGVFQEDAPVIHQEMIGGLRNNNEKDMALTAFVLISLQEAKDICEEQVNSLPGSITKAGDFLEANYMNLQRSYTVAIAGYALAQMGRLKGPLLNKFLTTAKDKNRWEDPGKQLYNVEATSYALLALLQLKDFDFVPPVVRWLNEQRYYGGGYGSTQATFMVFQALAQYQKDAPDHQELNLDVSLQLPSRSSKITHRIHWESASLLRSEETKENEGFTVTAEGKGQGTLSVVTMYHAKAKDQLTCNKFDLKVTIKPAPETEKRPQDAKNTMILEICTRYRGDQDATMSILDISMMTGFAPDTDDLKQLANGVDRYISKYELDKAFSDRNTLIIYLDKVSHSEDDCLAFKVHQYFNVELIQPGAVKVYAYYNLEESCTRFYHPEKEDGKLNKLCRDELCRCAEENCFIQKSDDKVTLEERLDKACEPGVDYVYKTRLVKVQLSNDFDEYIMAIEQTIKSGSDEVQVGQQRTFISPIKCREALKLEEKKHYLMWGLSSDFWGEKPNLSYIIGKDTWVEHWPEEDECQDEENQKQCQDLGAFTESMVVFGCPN
C3 convertase, C3bBb, sequence (P00751 260-764 limits assumed, chain 2 of 2): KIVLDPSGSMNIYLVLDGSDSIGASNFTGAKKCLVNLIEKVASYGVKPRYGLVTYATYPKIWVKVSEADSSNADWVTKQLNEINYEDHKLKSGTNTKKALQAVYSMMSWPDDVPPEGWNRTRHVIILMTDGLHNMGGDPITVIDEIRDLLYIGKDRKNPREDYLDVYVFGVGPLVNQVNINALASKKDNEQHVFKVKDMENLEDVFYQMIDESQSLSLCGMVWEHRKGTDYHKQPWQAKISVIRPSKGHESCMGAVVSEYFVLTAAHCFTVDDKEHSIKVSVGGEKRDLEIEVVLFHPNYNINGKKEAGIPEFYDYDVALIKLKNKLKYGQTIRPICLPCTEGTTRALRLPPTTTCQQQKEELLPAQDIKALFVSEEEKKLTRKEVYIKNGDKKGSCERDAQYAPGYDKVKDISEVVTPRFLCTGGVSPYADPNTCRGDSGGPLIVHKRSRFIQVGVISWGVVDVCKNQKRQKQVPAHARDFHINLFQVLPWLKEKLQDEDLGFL

Row | Binder | Fold Activity at Highest Dose (Relative to Control) (C3b protein [1]) [fold] | Fold Activity at Highest Dose (Relative to Control) (CRP [2]) [fold] | Fold Activity at Highest Dose (Relative to Control) (CRP [3]) [fold] | Fold Activity at Highest Dose (Relative to Control) (C3b protein [4]) [fold] | Fold Activity (Compared to CFHT-I62) (CRP [5]) [fold] | IC50, decay acceleration activity (DAA) assay (C3 convertase, C3bBb) [nM] | fold less active than unmodified CFHT, DAA assay (C3 convertase, C3bBb) [fold] | Fold Activity (Compared to CFHT-I62) (C3b protein [6]) [fold] | Fold Activity (Compared to CFHT-I62) (C3d ligand) [fold]
1 | CFHT.0 (pCTM297) (other, also called unmodified CFHT; protective CFHT) EDCNELPPRRNTEILTGSWSDQTYPEGTQAIYKCRPGYRSLGNIIMVCRKGEWVALNPLRKCQKRPCGHPGDTPFGTFTLTGGNVFEYGVKAVYTCNEGYQLLGEINYRECDTDGWTNDIPICEVVKCLPVTAPENGKIVSSAMEPDREYHFGQAVRFVCNSGYKIEGDEEMHCSDDGFWSKEKPKCVEISCKSPDVINGSPISQKIIYKENERFQYKCNMGYEYSERGDAVCTESGWRPLPSCEEKSCDNPYIPNGDYSPLRIKHRTGDEITYQCRNGFYPATRGNTAKCTSTGWIPAPRCTLKPCDYPDIKHGGLYHENMRRPYFPVAVGKYYSYYCDEHFETPSGSYWDHIHCTQDGWSPAVPCLRKCYFPYLENGYNQNYGRKFVQGKSIDVACHPGYALPKAQTTVTCMENGWSPTPRCIRVSFTL | 1.5 |  |  |  |  |  |  |  | 
2 | His-dCFHT.0 (pCTM462) (other, Protective CFHT with the FHR-1 SCR1/2 homodimerization domain at the N-terminus ('dimer CFHT'); copies 2 follows that description, dimer state not measured; no residue range stated; also called purified recombinant dCFHT.0; not shown: 6x His-TEV tag (87 bp, 29 residues by transgene size: 1839 against 1752)) EATFCDFPKINHGILYDEEKYKPFSQVPTGEVFYYSCEYNFVSPSKSFWTRITCTEEGWSPTPKCLRLCFFPFVENGHSESSGQTHLEGDTVQIICNTGYRLQNNENNISCVERGWSTPPKCRSGGGGSGGGGSEDCNELPPRRNTEILTGSWSDQTYPEGTQAIYKCRPGYRSLGNIIMVCRKGEWVALNPLRKCQKRPCGHPGDTPFGTFTLTGGNVFEYGVKAVYTCNEGYQLLGEINYRECDTDGWTNDIPICEVVKCLPVTAPENGKIVSSAMEPDREYHFGQAVRFVCNSGYKIEGDEEMHCSDDGFWSKEKPKCVEISCKSPDVINGSPISQKIIYKENERFQYKCNMGYEYSERGDAVCTESGWRPLPSCEEKSCDNPYIPNGDYSPLRIKHRTGDEITYQCRNGFYPATRGNTAKCTSTGWIPAPRCTLKPCDYPDIKHGGLYHENMRRPYFPVAVGKYYSYYCDEHFETPSGSYWDHIHCTQDGWSPAVPCLRKCYFPYLENGYNQNYGRKFVQGKSIDVACHPGYALPKAQTTVTCMENGWSPTPRCIRVSFTL | 22 | 6.4 |  |  | 2.2 |  |  | 55.3 | 2.1

More lines, now with the values ahead:

Row | Fold Activity at Highest Dose (Relative to Control) (C3b protein [1]) [fold] | Fold Activity at Highest Dose (Relative to Control) (CRP [2]) [fold] | Fold Activity at Highest Dose (Relative to Control) (CRP [3]) [fold] | Fold Activity at Highest Dose (Relative to Control) (C3b protein [4]) [fold] | Fold Activity (Compared to CFHT-I62) (CRP [5]) [fold] | IC50, decay acceleration activity (DAA) assay (C3 convertase, C3bBb) [nM] | fold less active than unmodified CFHT, DAA assay (C3 convertase, C3bBb) [fold] | Fold Activity (Compared to CFHT-I62) (C3b protein [6]) [fold] | Fold Activity (Compared to CFHT-I62) (C3d ligand) [fold] | Binder
3 | 99 | 49 |  |  |  |  |  |  |  | His-mCFHT.2 (pCTM460) (other, Protective CFHT with two additional C-terminal SCR7 domains; no residue range stated; HEK293 supernatant; not shown: N-terminal 6x His-TEV tag (87 bp, 29 residues by transgene size: 1791 against 1704)) EDCNELPPRRNTEILTGSWSDQTYPEGTQAIYKCRPGYRSLGNIIMVCRKGEWVALNPLRKCQKRPCGHPGDTPFGTFTLTGGNVFEYGVKAVYTCNEGYQLLGEINYRECDTDGWTNDIPICEVVKCLPVTAPENGKIVSSAMEPDREYHFGQAVRFVCNSGYKIEGDEEMHCSDDGFWSKEKPKCVEISCKSPDVINGSPISQKIIYKENERFQYKCNMGYEYSERGDAVCTESGWRPLPSCEEKSCDNPYIPNGDYSPLRIKHRTGDEITYQCRNGFYPATRGNTAKCTSTGWIPAPRCTLKPCDYPDIKHGGLYHENMRRPYFPVAVGKYYSYYCDEHFETPSGSYWDHIHCTQDGWSPAVPCLRKCYFPYLENGYNQNYGRKFVQGKSIDVACHPGYALPKAQTTVTCMENGWSPTPRCIRVRKCYFPYLENGYNQNYGRKFVQGKSIDVACHPGYALPKAQTTVTCMENGWSPTPRCIRVRKCYFPYLENGYNQNYGRKFVQGKSIDVACHPGYALPKAQTTVTCMENGWSPTPRCIRVSFTL
4 |  |  | 2.8 | 3.8 |  |  |  |  |  | rCFHT-I62 Protein (other, Purified recombinant protective CFHT (I62, Y402); also called purified recombinant CFHT-I62 protein; recombinant CFHT-I62) EDCNELPPRRNTEILTGSWSDQTYPEGTQAIYKCRPGYRSLGNIIMVCRKGEWVALNPLRKCQKRPCGHPGDTPFGTFTLTGGNVFEYGVKAVYTCNEGYQLLGEINYRECDTDGWTNDIPICEVVKCLPVTAPENGKIVSSAMEPDREYHFGQAVRFVCNSGYKIEGDEEMHCSDDGFWSKEKPKCVEISCKSPDVINGSPISQKIIYKENERFQYKCNMGYEYSERGDAVCTESGWRPLPSCEEKSCDNPYIPNGDYSPLRIKHRTGDEITYQCRNGFYPATRGNTAKCTSTGWIPAPRCTLKPCDYPDIKHGGLYHENMRRPYFPVAVGKYYSYYCDEHFETPSGSYWDHIHCTQDGWSPAVPCLRKCYFPYLENGYNQNYGRKFVQGKSIDVACHPGYALPKAQTTVTCMENGWSPTPRCIRVSFTL
5 | 43 | 6.3 |  |  | 12.2 | 15.5 | 8 | 40.1 | 3.8 | His-mCFHT.1 (pCTM459) (other, not shown: small tags and cut ends, Protective CFHT with one additional C-terminal SCR7 domain; also called purified recombinant mCFHT.1) EDCNELPPRRNTEILTGSWSDQTYPEGTQAIYKCRPGYRSLGNIIMVCRKGEWVALNPLRKCQKRPCGHPGDTPFGTFTLTGGNVFEYGVKAVYTCNEGYQLLGEINYRECDTDGWTNDIPICEVVKCLPVTAPENGKIVSSAMEPDREYHFGQAVRFVCNSGYKIEGDEEMHCSDDGFWSKEKPKCVEISCKSPDVINGSPISQKIIYKENERFQYKCNMGYEYSERGDAVCTESGWRPLPSCEEKSCDNPYIPNGDYSPLRIKHRTGDEITYQCRNGFYPATRGNTAKCTSTGWIPAPRCTLKPCDYPDIKHGGLYHENMRRPYFPVAVGKYYSYYCDEHFETPSGSYWDHIHCTQDGWSPAVPCLRKCYFPYLENGYNQNYGRKFVQGKSIDVACHPGYALPKAQTTVTCMENGWSPTPRCIRVRKCYFPYLENGYNQNYGRKFVQGKSIDVACHPGYALPKAQTTVTCMENGWSPTPRCIRVSFTL
